This is an account of results in doi:10.1101/2022.09.21.508879.

The target in assay [1] is Chlamydomonas reinhardtii CFAP410 C-terminal domain, mutant A219E (Chlamydomonas reinhardtii). Put plainly: SEC-MALS. (In general: Size exclusion chromatography separates by hydrodynamic size, large species first.)
Assay [2] addresses Chlamydomonas reinhardtii CFAP410 C-terminal domain, wild type (Chlamydomonas reinhardtii). Put plainly: SEC-MALS.
Assay [3] has the same target. Put plainly: crystal structure.
For assay [4], the target named is Homo sapiens CFAP410 C-terminal domain, wild type (Homo sapiens) (UniProt O43822). Put plainly: crystal structure.
Assay [5] has as its target Trypanosoma brucei CFAP410 C-terminal domain, wild type (Trypanosoma brucei). Description: crystal structure.

By stoichiometry N is commonly meant a count of units in the complex or per binding partner. For the substance “Chlamydomonas reinhardtii CFAP410 C-terminal domain, mutant A219E (peptide)”, in assay [1], the stoichiometry N was found to be 2. Regarding “Chlamydomonas reinhardtii CFAP410 C-terminal domain, wild type (peptide)”, the stoichiometry N in assay [2] and in assay [3] was 4 each time. Substance “Homo sapiens CFAP410 C-terminal domain, wild type (from UniProt O43822 212-246) (peptide)” gave a stoichiometry N in assay [4] of 4.

As for “Trypanosoma brucei CFAP410 C-terminal domain, wild type (peptide)”, the stoichiometry N in assay [5] was 4.
